Results reported in patent US20180282397A1 (UNIVERSITY OF SOUTHERN CALIFORNIA, published 2018).
Positions count from the first letter of the chain named. Names and notes keep the numbering of the source.

How the values were obtained:
[1] = molecular target: T1, K-Ras(G12V, Y32R) (human, UniProt P01116-2 1-185, limits assumed, biotinylated (pDW363 vector, BirA)); assay: radioactive in vitro pull-down of [35S]Met-labelled RasIn2 on bead-immobilised target [d]
T1 construct: Made by site-directed mutagenesis of pDW363 K-Ras(G12V); also called Y32R Switch I mutant; Y32R mutation

[2] = molecular target: T2, Rap1B(G12V)-GTP (Pan troglodytes (Chimpanzee), UniProt A5A6J7 1-166, biotinylated (pDW363 vector, BirA)); assay: radioactive in vitro pull-down of [35S]Met-labelled RasIn2 on bead-immobilised target [c]
T2 construct: also called Rap1B-GTP
T2 chain: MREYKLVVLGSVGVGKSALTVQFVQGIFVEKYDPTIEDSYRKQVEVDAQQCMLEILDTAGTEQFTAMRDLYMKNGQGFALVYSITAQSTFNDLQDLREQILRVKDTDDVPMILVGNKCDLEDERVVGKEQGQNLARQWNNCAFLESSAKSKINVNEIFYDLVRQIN

[3] = molecular target: T3, Arf1-GTP (UniProt P84077 18-179, biotinylated (pDW363 vector, BirA)); assay: as above
T3 construct: range 18-179

[4] = molecular target: T4, H-Ras(G12V)-GTP (Homo sapiens (Human), UniProt P01112 1-166); assay: radioactive in vitro pull-down on Ras-GTP beads (FIG. 6b)
T4 construct: also called H-Ras(G12V)-GppNHp; active H-Ras(G12V); not shown: avitag and His tag at the 5' (N-terminal) end

[5] = molecular target: T1, K-Ras(G12V, Y32R); assay: radioactive in vitro pull-down of [35S]Met-labelled RasIn1 on bead-immobilised target [b]
[6] = molecular target: T5, K-Ras(G12V)-GTP (human, UniProt P79800 1-166 (Meleagris gallopavo entry), biotinylated in vivo on the avitag (BirA)); assay: radioactive pull-down of RasIn1 on Ras-GTP beads; competitor Raf-RBD in molar excess
T5 construct: Active state: immobilised on neutravidin/streptavidin beads and exchanged with GTP or GTPγS; Same protein as m18, other nucleotide; also called K-Ras(G12V)-GTPγS; K-Ras(GTPγS); not shown: avitag and His tag at the 5' (N-terminal) end

[7] = molecular target: T4, H-Ras(G12V)-GTP; assay: ELISA, biotin-labeled H-Ras(G12V)-GppNHp on streptavidin plate, anti-FLAG detection, OD450
[8] = molecular target: T4, H-Ras(G12V)-GTP; assay: SPR, Biacore T100, biotinylated H-Ras(G12V)-GppNHp on streptavidin chip, MBP-intrabody fusion injected, 25 C
[9] = molecular target: T4, H-Ras(G12V)-GTP; assay: SPR, KD of RasIn2 against KD of the parent clone RasIn1
[10] = molecular target: T5, K-Ras(G12V)-GTP; assay: radioactive in vitro pull-down of [35S]-labelled RasIn1 and point mutants on immobilised K-Ras-GTP [a]
[11] = molecular target: T4, H-Ras(G12V)-GTP; assay: SPR (Biacore T100), H-Ras(G12V) on a streptavidin chip exchanged with GppNHp, maltose binding protein-intrabody fusion injected [e]

B1: RasIn2 (designed binder)
chain: MLEVKEASPTSIQISWSIVFGKHDRYYRITYGETGGNSPVQEFTVPGSKSAATISGLKPGVDYTITVYAVTFRWPKRRLVRPISINYRT
notes: also called Clone 3; radiolabeled RasIn2
- binding result [1]: no binding
- binding result [2]: no binding
- binding result [3]: no binding
- % binding (pull-down) [4]: > 70%

B2: RasIn1 (designed binder)
chain: B1 chain with S17G, I18P, G21S, K22A, H23Y, D24S, K76M, R77P
notes: also called radiolabeled RasIn1; parental RasIn1 clone
- binding result [5]: no binding
- fold decrease of binding with Raf-RBD [6]: 12 fold

B3: FLAG-tagged RasIn2 (designed binder, not shown: large carriers)
chain: B1 chain
notes: also called RasIn2 protein
- fold ELISA signal versus Raf-RBD [7]: ~10 fold

B4: RasIn2 maltose binding protein fusion (designed binder, not shown: large carriers)
chain: B1 chain
- Kd [8]: 0.12 µM
- fold increase in affinity versus RasIn1 [9]: ~20 fold

B5: Clone 1 (designed binder)
chain: B1 chain with S17G, I18R, G21S, K22L, H23D, D24S, K76N, R77P
notes: also called Clone 1 of maturation pool 5
- % binding (pull-down) [4]: > 70%

B6: Clone 4 (designed binder)
chain: B1 chain with S17G, I18S, G21R, K22A, H23D, D24S, K76R, R77P, V80L, R81W
notes: also called clone 4 of maturation pool 5
- % binding (pull-down) [4]: > 70%

B7: RasIn1 R72A (designed binder)
chain: B1 chain with S17G, I18P, G21S, K22A, H23Y, D24S, R73A, K76M, R77P
modifications: [35S]Met radiolabel from in vitro translation; letters unchanged
notes: FG loop mutant
- binding result [10]: no binding

B8: RasIn1 S24R (designed binder)
chain: B1 chain with S17G, I18P, G21S, K22A, H23Y, D24R, K76M, R77P
modifications: [35S]Met radiolabel from in vitro translation; letters unchanged
notes: Radiolabeled point mutant of RasIn1, BC loop
- binding result [10]: no binding

B9: RasIn1 maltose binding protein fusion (designed binder, not shown: large carriers)
chain: B1 chain with S17G, I18P, G21S, K22A, H23Y, D24S, K76M, R77P
- Kd [11]: 2 µM
- Kd [8]: 2.1 µM

B10: Clone 2 (designed binder)
chain: B1 chain with S17E, I18Y, K22R, V80L, R81W
notes: also called Clone 2 of maturation pool 5
- % binding (pull-down) [4]: > 70%

B11: RasIn1 R77A (designed binder)
chain: B1 chain with S17G, I18P, G21S, K22A, H23Y, D24S, K76M, R77P, R78A
modifications: [35S]Met radiolabel from in vitro translation; letters unchanged
notes: FG loop mutant
- binding result [10]: no binding
